From patent US20260209387A1, “SINGLE-DOMAIN ANTIBODY FOR INHIBITION OF NEUTROPHIL ELASTASE ACTIVITY” (UNIVERSITE DE LIEGE, priority 2023, published 2026)
Blank lines part the entries; values can stand above or below the binder they belong to.

What was measured:
[1] = biological target: T1, human neutrophil elastase (human, UniProt P08246 30-247, glycans (NAG-NAG-FUC) at N109 and N204, chymotrypsinogen numbering, seen in the crystal); assay: cell-based or functional assay
T1 sequence: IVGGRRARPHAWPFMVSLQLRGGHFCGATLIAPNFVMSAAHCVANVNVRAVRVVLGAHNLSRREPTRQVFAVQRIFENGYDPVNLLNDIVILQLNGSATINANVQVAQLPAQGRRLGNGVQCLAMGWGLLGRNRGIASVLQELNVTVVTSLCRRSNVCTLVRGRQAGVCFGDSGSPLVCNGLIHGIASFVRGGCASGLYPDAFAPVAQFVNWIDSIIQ

[2] = biological target: T2, human proteinase 3 (human, UniProt P24158 28-248); assay: cell-based or functional assay
T2 sequence (looked up): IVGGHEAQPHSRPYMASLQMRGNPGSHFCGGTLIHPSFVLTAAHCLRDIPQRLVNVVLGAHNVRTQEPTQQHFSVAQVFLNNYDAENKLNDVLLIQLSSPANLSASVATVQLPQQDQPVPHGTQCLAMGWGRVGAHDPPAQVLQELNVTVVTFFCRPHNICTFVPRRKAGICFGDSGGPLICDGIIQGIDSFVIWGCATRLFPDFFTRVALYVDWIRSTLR

[3] = biological target: T1, human neutrophil elastase; assay: cell-based or functional assay; remark: listed apart in the source
[4] = biological target: T3, mouse neutrophil elastase (mouse, UniProt Q3UP87 29-265, limits assumed); assay: cell-based or functional assay
T3 sequence (looked up): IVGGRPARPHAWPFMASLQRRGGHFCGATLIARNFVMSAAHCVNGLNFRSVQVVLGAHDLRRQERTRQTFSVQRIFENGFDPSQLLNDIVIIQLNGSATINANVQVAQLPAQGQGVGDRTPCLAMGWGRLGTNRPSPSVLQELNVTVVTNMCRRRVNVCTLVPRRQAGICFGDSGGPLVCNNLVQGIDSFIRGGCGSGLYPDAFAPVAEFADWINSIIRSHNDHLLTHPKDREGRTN

[5] = biological target: T3, mouse neutrophil elastase; assay: enzymatic assay, substrate MeOSuc-Ala-Ala-Pro-Val-AMC, Morrison equation for tight binders, N=6
Procedure: The substrate used were Succinyl-Ala-Ala-Ala-paraNitroAnilide (1 mM in 0.1 M Tris pH 7.5 with NaCl 0.5 M and NaN3 0.01%, % w/v from Sigma-Aldrich) for pPE, MeOSuc-Ala-Ala-Pro-Val-AMC (100 μM in Tris 50 mM, NaCl 1 M, 0.05% (% w/v) Brij-35, pH 7.5) for mNE, N-Succinyl-Ala-Ala-Pro-Phe p-nitroanilide (0.45 mM in 100 mM HEPES pH 7.5, from Sigma Aldrich) for hCG and Boc-Ala-Ala-Nva-SBzl (0.22 mM in 100 mM MOPS pH 5.0 0.5 M NaCl, 100 μM DTNB, DMSO 10%, from EPC) for PR3. mNE (rmELA2 from R&D systems, United Kingdom) was first activated according to the supplier information. In brief, mNE was incubated with recombinant mouse active cathepsin C/DPPIy (rmCathepsin C from R&D systems) in MES 50 mM, NaCl 50 mM, pH 5.5 for 2 h at 37° C. […] The hydrolysis of the substrate and the determination of the residual activity were carried out as explained above for the inhibition of hNE.

[6] = biological target: T1, human neutrophil elastase; assay: enzymatic assay, substrate N-Succinyl-Ala-Ala-Ala-pNA, Morrison equation for tight binders, N=3
Procedure: Inhibition of the hydrolysis of a chromogenic substrate. […] Briefly, hNE (Elastin products company, EPC, United States) was resuspended at 1 mg·mL⁻¹ in 50 mM sodium acetate buffer pH 5 containing 100 mM NaCl and stored at 4° C. The substrate Succinyl-Ala-Ala-Ala-paraNitroAnilide was dissolved at 1 mM in 0.1 M Tris pH 7.5 with NaCl 0.5 M and NaN3 0.01% (% w/v) and stored at 4° C. 230 μl of substrate (1 mM) were mixed with 10 μl of Bovine Serum Albumin 9 μM (BSA, Sigma-Aldrich, Germany) and incubated 20 min at 25° C. in a clear flat bottom 96-well plate (Greiner Bio-One, Belgium). […] Immediately after, the hNE was added to the mix at a final concentration of 50 nM. […] The initial velocity determined in the presence of the ISVD at different Nb: hNE ratios was compared to that measured in the absence of the ISVD, to determine the residual activity. The delay between the addition of hNE and the first measurement was about 100 seconds. […] In some experiments, the ISVD was preincubated for 15 minutes with the hNE and the complex was added to the substrate.
The Kᵢ was calculated averaging three Kᵢ of three independent curves, each curve representing experiment carried out with a different lot of production of the Nb.

[7] = biological target: T1, human neutrophil elastase; assay: BLI, comparison of the values in Table 2
[8] = biological target: T4, porcine pancreatic elastase (pig, UniProt P00772 27-266); assay: BLI, biotinylated NbE201 on streptavidin sensors, protease in solution
T4 construct: also called pPE; PPE
Procedure: (§1) The biosensors were then immersed in a 50 nM solution of a serine protease. The proteases tested were human cathepsin G (hCG), human proteinase 3 (hPR3), mouse pancreatic elastase (mPE), mouse neutrophil elastase (mNE) and porcine pancreatic elastase (pPE). hNE was used a positive control. The association and dissociation were measured for 70 s and 320 s respectively, in kinetic buffer (KB, Sartorius). The experiments were carried out at 30° C. in 384-wells black-bottom microplates in polypropylene (Greiner Bio-One, Belgium) and with orbital agitation (1000 rpm).

[9] = biological target: T5, human cathepsin G (human, UniProt P08311 21-244); assay: as above
T5 construct: also called hCG; CG
T5 sequence (looked up): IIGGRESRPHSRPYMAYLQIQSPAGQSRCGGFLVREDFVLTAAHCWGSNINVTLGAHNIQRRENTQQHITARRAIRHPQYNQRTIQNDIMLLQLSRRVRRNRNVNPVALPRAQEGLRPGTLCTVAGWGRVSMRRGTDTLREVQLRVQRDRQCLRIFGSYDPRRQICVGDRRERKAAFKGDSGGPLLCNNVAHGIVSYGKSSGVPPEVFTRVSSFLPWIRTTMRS
Procedure: as §1

[10] = biological target: T2, human proteinase 3; assay: as above
Procedure: as §1

[11] = biological target: T3, mouse neutrophil elastase; assay: BLI (Octet HTX), NbE201_Cter Biot on streptavidin sensor, mNE as analyte, 1:1 fit, N=1
Procedure: FIG. 9. […] On the x-axis, the time in seconds. On the y-axis, the interference signal in nm. The dashed line separates the association step from the dissociation step. In black, the experimental signal. In grey, the fitting using a 1:1 model. The mNE concentrations tested are 100-50-25-12.5-6.25-3.125 nM, from top to bottom. Association and dissociation kinetics were measured for 300 s and 600 s respectively. The obtained sensorgrams were fitted to a 1:1 model by using the Data Analysis Octet Software Version 10.0 (Sartorius) to derive the rate constants for association (kₒₙ) and dissociation (koff) and the equilibrium dissociation constant (KD=koff/kₒₙ).
(§2) Then, the biosensors were immersed in a solution of hNE at different concentrations ([…]-0.753 nM). Association and dissociation kinetics were measured for 180 s and 300 s respectively, in 10×KB buffer. All the experiments were carried out at 30° C. in 96-wells or 384-wells black-bottom microplates in polypropylene (Greiner Bio-One, Belgium) and with orbital agitation (1500 rpm). The sensorgrams obtained were fitted globally to a 1:1 model to derive the rate constants for association (kₒₙ) and dissociation (koff) and the equilibrium dissociation constant (KD=koff/kₒₙ). […] were carried out. The error on KD was calculated using the following equation: […]

[12] = biological target: T1, human neutrophil elastase; assay: BLI (Octet HTX), biotinylated NbE201 on streptavidin sensor, hNE as analyte, global 1:1 fit, N=2
Procedure: FIG. 6. […] On the x-axis, the time in seconds. On the y-axis, the interference signal in nm. A vertical dashed line divides the association step from the dissociation step. […] Each curve (in black) represents measured data (□□) referring to a single concentration of hNE used: 25 nM, 6.25 nM, 3.125 nM, 1.563 nM and 0.753 nM (from top to bottom). In grey, is represented the fitting of the data from which the KD value and kinetic parameters were derived. Data were fitted accordingly to a 1:1 ligand model by using the Data Analysis Octet Software Version 10.0 (Satorius). Independent replicates of the experiment were done (N=2) and the mean (±st. dev.) of the kinetics parameters measured and indicated in Table 2.
as §2

T4 sequence (P00772 27-266): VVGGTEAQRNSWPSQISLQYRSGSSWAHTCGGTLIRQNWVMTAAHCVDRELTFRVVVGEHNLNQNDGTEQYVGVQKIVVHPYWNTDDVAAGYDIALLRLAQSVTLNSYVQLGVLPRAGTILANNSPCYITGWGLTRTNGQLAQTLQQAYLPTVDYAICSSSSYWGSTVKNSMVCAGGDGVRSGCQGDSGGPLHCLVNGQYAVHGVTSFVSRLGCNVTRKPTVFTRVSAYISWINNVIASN

IC50, inhibition of elastin hydrolysis by hNE (132 nM) [1]: 488 nM | fold inhibitory activity relative to mNE [1]: ~10 fold | molar ratio inhibitor:hNE for total elastase inhibition in vitro [1]: 3 NbE201:hNE molar ratio | inhibition of protease activity at NbE201:enzyme ratio of 60 [2]: 20% | IC50, inhibition of hydrolysis of N-Succinyl-Ala-Ala-Ala-paraNitroAnilide by hNE (50 nM) [3]: 38.3 nM | IC50, inhibition of hydrolysis of MeOSuc-Ala-Ala-Pro-Val-AMC by mNE (14.7 nM) [4]: 49.4 nM | Ki [5]: 38.8 nM | Ki [6]: 4.1 nM
B1: NbE201 (VHH)
VHH: QVQLQESGGGLVQAGGSLRLSCVVPGRTISLYRMGWFRQAPGKEREFVAGINWSGDMTDYVDSVKGRFTISRDNAKNTVYLEMNSLKPEDTAIYYCTADPKLLPLADSSYGYWGQGTQVTVSS
notes: Llama VHH made in the periplasm of E. coli WK6 (pHEN6 vector) and purified by IMAC; This form was used in the enzymatic assays and for crystallisation; also called NbE201 wt; NbE201-WT

fold affinity relative to mNE [7]: ~10 fold | binding result [8]: no binding (tested: 50 nM) | binding result [9]: no binding (tested: 50 nM) | binding result [10]: no binding (tested: 50 nM) | Kd [11]: 49 nM | koff [11]: 0.019 s⁻¹ | kon [11]: 390000 M⁻¹ s⁻¹ | Kd [12]: 1.3 nM | koff [12]: 0.0032 s⁻¹ | kon [12]: 2.6e+06 M⁻¹ s⁻¹
B2: biotinylated NbE201 (VHH)
VHH: B1 VHH
modifications: C-terminal Cys biotinylated with EZ-Link Maleimide-PEG2-Biotin
notes: Form immobilised on streptavidin sensors in all BLI experiments; It was produced in the pHEN25 vector and biotinylated site-specifically on its C-terminal Cys; also called NbE201_Cter Biot; biotinylated ISVD NbE201
